Test results published in US20260035468A1 (INSTITUT NATIONAL DE LA SANT ET DE LA RECHERCHE M DICALE, published 2026).

Target: T1, β8 chain of αvβ8 integrin (Itgβ8) expressed on human tumor Treg cells (human, UniProt P26012 43-769; P06756 31-1048)
T1 construct: whole, on cells; also called Itgb8 chain on human Treg cells; human Itgβ8
Experiment: staining of cells of one fresh human colonic tumor (data not shown)

T1 sequence (P26012 43-769, chain 1 of 2): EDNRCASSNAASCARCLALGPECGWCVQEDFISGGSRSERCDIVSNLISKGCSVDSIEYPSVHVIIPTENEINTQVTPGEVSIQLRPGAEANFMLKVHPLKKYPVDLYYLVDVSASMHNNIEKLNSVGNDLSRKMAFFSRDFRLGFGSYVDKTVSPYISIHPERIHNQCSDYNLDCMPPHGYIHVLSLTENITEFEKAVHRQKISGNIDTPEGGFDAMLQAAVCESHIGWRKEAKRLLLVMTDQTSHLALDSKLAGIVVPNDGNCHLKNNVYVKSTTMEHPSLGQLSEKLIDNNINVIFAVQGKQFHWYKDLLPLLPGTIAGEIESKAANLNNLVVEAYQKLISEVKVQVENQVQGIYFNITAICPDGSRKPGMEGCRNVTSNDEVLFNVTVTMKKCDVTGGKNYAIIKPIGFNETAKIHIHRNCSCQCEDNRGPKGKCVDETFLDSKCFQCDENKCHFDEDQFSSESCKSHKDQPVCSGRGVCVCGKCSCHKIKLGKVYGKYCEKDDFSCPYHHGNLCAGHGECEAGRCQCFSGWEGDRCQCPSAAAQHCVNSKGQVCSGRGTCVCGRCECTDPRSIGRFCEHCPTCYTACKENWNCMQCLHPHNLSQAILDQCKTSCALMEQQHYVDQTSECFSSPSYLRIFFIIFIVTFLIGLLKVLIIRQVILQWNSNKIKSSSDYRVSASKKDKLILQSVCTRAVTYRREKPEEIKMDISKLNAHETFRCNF
T1 sequence (P06756 31-1048, chain 2 of 2): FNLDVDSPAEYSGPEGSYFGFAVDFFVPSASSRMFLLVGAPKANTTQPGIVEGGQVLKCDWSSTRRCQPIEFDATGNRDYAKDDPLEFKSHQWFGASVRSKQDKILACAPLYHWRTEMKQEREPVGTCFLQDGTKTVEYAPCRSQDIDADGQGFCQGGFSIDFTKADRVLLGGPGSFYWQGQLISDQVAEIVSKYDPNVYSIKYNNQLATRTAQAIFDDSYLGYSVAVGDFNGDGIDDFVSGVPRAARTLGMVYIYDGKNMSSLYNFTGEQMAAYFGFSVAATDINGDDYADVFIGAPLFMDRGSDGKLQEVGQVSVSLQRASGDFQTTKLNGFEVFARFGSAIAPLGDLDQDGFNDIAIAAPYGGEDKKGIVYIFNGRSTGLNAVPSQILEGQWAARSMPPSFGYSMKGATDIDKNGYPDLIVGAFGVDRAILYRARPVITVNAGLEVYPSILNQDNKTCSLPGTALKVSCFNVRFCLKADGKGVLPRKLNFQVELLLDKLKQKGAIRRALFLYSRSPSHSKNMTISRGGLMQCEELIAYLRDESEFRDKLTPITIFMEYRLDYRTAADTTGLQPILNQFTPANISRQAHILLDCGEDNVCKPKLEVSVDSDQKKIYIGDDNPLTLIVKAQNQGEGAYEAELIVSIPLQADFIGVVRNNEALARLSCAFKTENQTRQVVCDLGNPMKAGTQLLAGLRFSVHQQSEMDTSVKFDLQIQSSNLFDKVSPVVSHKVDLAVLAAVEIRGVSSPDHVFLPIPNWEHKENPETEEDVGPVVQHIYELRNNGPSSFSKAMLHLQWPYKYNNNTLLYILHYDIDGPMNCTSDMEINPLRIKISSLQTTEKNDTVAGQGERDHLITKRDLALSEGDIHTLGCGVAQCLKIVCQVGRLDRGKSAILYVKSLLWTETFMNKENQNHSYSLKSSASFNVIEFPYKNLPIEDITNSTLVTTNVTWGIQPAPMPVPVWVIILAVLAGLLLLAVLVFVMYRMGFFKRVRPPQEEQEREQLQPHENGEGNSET

binding result | Binder
binds | Mab 1G10G4 (antibody, V domains shown, Mouse hybridoma antibody tested as clone supernatant; also called 1G10G4 mAb; clone 3) VH: QVQLQQSGAELARPGASVKMSCKASGYTFTSYTMHWVKQRPGQGLEWIGYINPSSGYTKYNQKFKDKATLTADKSSSTAYMQLSSLTSEDSAVYYCARAEGLRAWFAYWGQGTLVTVSA VL: DIVMTQSQKFMSTSVGDRVSVTCKASQNVGTNVAWYQQKPGQSPKALIYSASYRYSGVPDHFTGSGSGTDFTLTIINVQSEDLAEYFCQQYNSYPYTFGGGTKLEIK
binds | Mab 9B2 (antibody, V domains shown, Mouse hybridoma antibody tested as clone supernatant; also called 9B2 mAb; clone 1) VH: QVQLQQSGAELAKPGASVKLSCKASGYTFTRYWMHWVKQRPGQGLEWIGHINPSSGYTKYNQKFKDKATLTADKSSSTAYMQLSSLTYEDSAVYYCAREVYYYGSSYGDFDYWGQGTTLTVSS VL: QIVLTQSPAIMSASPGEKVTISCSASSSVSYMYWYQQKPGSSPKPWIYRTSNLASGVPARFSGSGSGTSYSLTISSMEAEDAATYYCQQYHSYPLTFGAGTKLELK
